Substrate in this data set: O=S(=O)(O)O
The data set is described as follows: cells, lysate or membranes. The settings on record: ND96(Cl-) bath, pH 7.4, extracellular sulfate, labelled compound. It counts as cell-based, Homo sapiens.

B1: human SLC26A1 (Homo sapiens) (protein)
chain: MDESPEPLQQGRGPVPVRRQRPAPRGLREMLKARLWCSCSCSVLCVRALVQDLLPATRWLRQYRPREYLAGDVMSGLVIGIILVPQAIAYSLLAGLQPIYSLYTSFFANLIYFLMGTSRHVSVGIFSLLCLMVGQVVDRELQLAGFDPSQDGLQPGANSSTLNGSAAMLDCGRDCYAIRVATALTLMTGLYQVLMGVLRLGFVSAYLSQPLLDGFAMGASVTILTSQLKHLLGVRIPRHQGPGMVVLTWLSLLRGAGQANVCDVVTSTVCLAVLLAAKELSDRYRHRLRVPLPTELLVIVVATLVSHFGQLHKRFGSSVAGDIPTGFMPPQVPEPRLMQRVALDAVALALVAAAFSISLAEMFARSHGYSVRANQELLAVGCCNVLPAFLHCFATSAALAKSLVKTATGCRTQLSSVVSATVVLLVLLALAPLFHDLQRSVLACVIVVSLRGALRKVWDLPRLWRMSPADALVWAGTAATCMLVSTEAGLLAGVILSLLSLAGRTQRPRTALLARIGDTAFYEDATEFEGLVPEPGVRVFRFGGPLYYANKDFFLQSLYSLTGLDAGCMAARRKEGGSETGVGEGGPAQGEDLGPVSTRAALVPAAAGFHTVVIDCAPLLFLDAAGVSTLQDLRRDYGALGISLLLACCSPPVRDILSRGGFLGEGPGDTAEEEQLFLSVHDAVQTARARHRELEATDAHL
As for B1, the K0.5 worked out at 0.26 ± 0.04 mM.

The record behind these values is paper PMC4956541.
